Consider 7 molecules from patent US20160202245A1 (MERZ PHARMA, published 2016).

Sequences and labels used below:
B1: mouse monoclonal antibody 5-10-5 (antibody, V domains shown)
VH: DVQLQESGPGLVKPSQSLSLTCTVTGFSITSDYAWNWIRQFPGNKLEWMGYISYKYGTRYNPSLKGRISITRDTSKNQFFLQLNSLTTEDTAIYYCARRGTDGYGFAYWGQGTLVTVSA
VL: DIVLTQSPASLGVSLGQRATISCRASESVSSSGYSYIHWYQQRPGQPPKLLIFLASNLESGVPARFSGSGSGTDFTLNIHPVEEEDAATYYCQHSRELPLTFGAGTKLELK
B2: mouse monoclonal antibody 20-2-5 (antibody, V domains shown)
VH: EVNLVESGGDLVKPGGSLKLSCAVSGFTFSGYAMSWVRQTPEKRLEWVASIATNGSTYYPDTVKGRFTIFRDNARNILYLQMSSLRSEDTAIYYCTRLRGFDNWGQGTTLTVSS
VL: DVLMTQIPLSLPVSLGDQASISCRSSQNIVHSNGNTYLEWYLQKSGQSPKLLIYKVFKRLSGVPDRFSGSGSGTDFTLRISRVEAEDLGVYYCFQGSHVPYTFGGGTKLEIK
B3: mouse monoclonal antibody 1-10-4 (antibody, V domains shown)
VH: EVKLVESGGDLVKPGGSLKLSCAVSGFSLNTYAMSWVRQTPEQRLEWVASISTNGSTYHSDSVKGRFTISRYNARNILYLQMSSLRSEDSAIYYCTRLRGFDYWGQGTTLTVSS
VL: DILMTQTPLSLSVSLGDQASISCRSSQNIVHSNGNTYLEWYLQKPGQSPKPLIYKLSKRFSGVPDRFSGSGSGTYFTLKISRVEAEDLGVYYCFQGSHVPYTFGGGTKLEIK
B4: mouse monoclonal antibody 16-5-4 (antibody, V domains shown)
VH: EVKLVESGGDLVKPGGSLKLSCAASGFTFNTYAMSWVRQTPEKRLEWVASISSNGSTYHPESVKGRFTISRDIARNILNLQMSSLRSEDTAIYYCSRLRGFDYWGQGTTLTVSS
VL: DVLMTQTPLSLPVSLGDQASISCRSSQSIVHSNGNTYLEWYLQKPGQSPKPLIYKVFKRFSGVPDRFSGSGSGTDFTLKISRVEAEDLGVYYCFQGSHVPYTFGGGTKLEIK
B5: mouse monoclonal antibody 6-3-8 (antibody, V domains shown)
VH: EVKLVEFGGGLVEPRGSLKLSCAASGFTFSTYAMSWVRQTPEKRLEWVASIASNGSTYYPDSVRGRFTISRDNARNILYLQMSSLRSEDTAMYYCSRLRGFDYWGQGSTLTVSS
VL: DVLMTQIPLSLPVSLGDQASISCRSSQSIVHSNGNTYLEWYLQKPGQSPSLLIYKVFKRLSGVPDRFSGSGSGTEFTLKINRVEAEDLGVYYCFQGSHVPYTFGGGTKLEIK
B6: mouse monoclonal antibody 14-12-1 (antibody, V domains shown)
VH: EVKLVESGGDLVKPGGSLKLSCAASGFTLSDYAMSWVRQSPEERLEWVASISTNGSTYYPDSVKGRFTISRDNARNILSLQMSSLRSEDTAIYYCTRLRGFDNWGQGTLLTVSS
VL: DVLMTQTPLSLPVSLGDQASISCRSSQNIVHSNGNTYLEWYLQKSGQSPKLLMYKVSKRLSGVPDRFSGRGSGTDFTLKISRVEAEDLGVYYCFQGSHVPYTFGGGTKLEIK
B7: mouse monoclonal antibody 18-3-3 (antibody, V domains shown)
VH: EVKLVESGGGLVKPGGSLKLSCAASGFTFRSYAVSWVRQTPEKRLEWVASISTNGSTYYPDSMKGRFTISRDTARNILYLEMNSLRSEDTAMYYCARLRGFDYWGQGTPLTVSS
VL: DVLMTQTPLSLPVSLGDQASISCRSSQSIVHSNGNTYLEWYLQKPGQSPKLLIYKVSKRFSGVPDRFSGSGSGTDFTLKITRVEAEDLGVYYCFQGSHVPYTFGGGTKLEIK

The assay has as its target T1, non-cleaved SNAP-25206 (UniProt P60880 1-206).
T1 construct: range 1-206
Nature of the assay: ELISA and Western blots.
For B1, the binding result is “no binding”. Regarding B2, the binding result is reported as “no binding”. As for B3, the entry is “no binding”.

Consider B4, for which the binding result is reported as “no binding”. Turning to B5, the binding result was “no binding”. The value for B6 was “no binding”; that for B7 was “no binding”.
